Laboratory results published in publication PMC6598095 (Journal of Experimental Botany, 2019).

T1: AtGL3 (F177I) (Arabidopsis thaliana, UniProt Q9FN69 1-637, F177I)
T1 sequence: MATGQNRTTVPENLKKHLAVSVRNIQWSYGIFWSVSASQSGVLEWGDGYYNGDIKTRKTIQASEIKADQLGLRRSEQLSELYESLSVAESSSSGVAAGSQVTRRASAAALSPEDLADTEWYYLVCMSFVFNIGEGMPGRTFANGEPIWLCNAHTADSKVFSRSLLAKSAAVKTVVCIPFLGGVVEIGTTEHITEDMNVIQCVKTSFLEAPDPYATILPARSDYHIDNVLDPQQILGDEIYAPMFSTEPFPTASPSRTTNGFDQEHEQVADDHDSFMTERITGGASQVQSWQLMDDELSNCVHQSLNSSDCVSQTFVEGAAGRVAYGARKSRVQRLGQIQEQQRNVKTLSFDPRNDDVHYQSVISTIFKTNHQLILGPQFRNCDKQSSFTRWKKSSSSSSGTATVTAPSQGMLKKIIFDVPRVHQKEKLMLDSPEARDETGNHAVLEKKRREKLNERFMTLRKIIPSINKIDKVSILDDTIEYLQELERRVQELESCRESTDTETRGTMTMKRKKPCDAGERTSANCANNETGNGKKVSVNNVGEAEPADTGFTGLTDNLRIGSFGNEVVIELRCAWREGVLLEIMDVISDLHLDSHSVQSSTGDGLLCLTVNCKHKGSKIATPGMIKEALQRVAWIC

B1: AtGL1 (natural protein)
chain: MRIRRRDEKENQEYKKGLWTVEEDNILMDYVLNHGTGQWNRIVRKTGLKRCGKSCRLRWMNYLSPNVNKGNFTEQEEDLIIRLHKLLGNRWSLIAKRVPGRTDNQVKNYWNTHLSKKLVGDYSSAVKTTGEDDDSPPSLFITAATPSSCHHQQENIYENIAKSFNGVVSASYEDKPKQELAQKDVLMATTNDPSHYYGNNALWVHDDDFELSSLVMMNFASGDVEYCL
B2: AtPAP1 (natural protein)
chain: MEGSSKGLRKGAWTTEEDSLLRQCINKYGEGKWHQVPVRAGLNRCRKSCRLRWLNYLKPSIKRGKLSSDEVDLLLRLHRLLGNRWSLIAGRLPGRTANDVKNYWNTHLSKKHEPCCKIKMKKRDITPIPTTPALKNNVYKPRPRSFTVNNDCNHLNAPPKVDVNPPCLGLNINNVCDNSIIYNKDKKKDQLVNNLIDGDNMWLEKFLEESQEVDILVPEATTTEKGDTLAFDVDQLWSLFDGETVKFD
B3: AtWER (natural protein)
chain: MRKKVSSSGDEGNNEYKKGLWTVEEDKILMDYVKAHGKGHWNRIAKKTGLKRCGKSCRLRWMNYLSPNVKRGNFTEQEEDLIIRLHKLLGNRWSLIAKRVPGRTDNQVKNYWNTHLSKKLGIKDQKTKQSNGDIVYQINLPNPTETSEETKISNIVDNNNILGDEIQEDHQGSNYLSSLWVHEDEFELSTLTNMMDFIDGHCF
B4: AtMYB61 (natural protein)
chain: not shown
B5: AtTT2 (natural protein)
chain: MGKRATTSVRREELNRGAWTDHEDKILRDYITTHGEGKWSTLPNQAGLKRCGKSCRLRWKNYLRPGIKRGNISSDEEELIIRLHNLLGNRWSLIAGRLPGRTDNEIKNHWNSNLRKRLPKTQTKQPKRIKHSTNNENNVCVIRTKAIRCSKTLLFSDLSLQKKSSTSPLPLKEQEMDQGGSSLMGDLEFDFDRIHSEFHFPDLMDFDGLDCGNVTSLVSSNEILGELVPAQGNLDLNRPFTSCHHRGDDEDWLRDFTC
B6: AtPAP2 (natural protein)
chain: MEGSSKGLRKGAWTAEEDSLLRLCIDKYGEGKWHQVPLRAGLNRCRKSCRLRWLNYLKPSIKRGRLSNDEVDLLLRLHKLLGNRWSLIAGRLPGRTANDVKNYWNTHLSKKHESSCCKSKMKKKNIISPPTTPVQKIGVFKPRPRSFSVNNGCSHLNGLPEVDLIPSCLGLKKNNVCENSITCNKDDEKDDFVNNLMNGDNMWLENLLGENQEADAIVPEATTAEHGATLAFDVEQLWSLFDGETVELD

Biological target: T1, AtGL3 (F177I)
Assay: pull-down

Binder | percent reduction of binding against wild-type AtGL3 [%]
B1 | 30
B2 | 30
B3 | 30
B4 | 30
B5 | 30
B6 | 30
